Patent US7407933B2, “Drug containing angiotensin convertase” (priority 2002, dated 2008)

Assays:
sperm-zona binding = test: Sperm-egg (zona pellucida) binding assay; assay type: cell-based, mouse
Method: All gametes were placed and handled within TYH medium. […] were isolated from wild-type mice and ACE knockout mice, and dispersed in 250 μl of medium. After sperms were floated for 15 minutes, transferred to 1.5 ml medium and incubated for at least 1 hour. Eggs were separated from superovulated mice and treated with 1 mg/ml of hyaluronidase (Sigma) on THY medium for removing laminated cells. Incubated sperms (approximately 2.0×10^6 sperm/ml) were treated for 90 min with 0.2 U wild-type ACE (ACE-WT), 0.2 U ACE-E414D, 1.0 IU/ml PI-PLC, or […] PI-PLC with 4 mM inositol monophosphate (Sigma), 4 mM inositol monophosphate, and buffer (PBS) alone. For the sperm-egg (zona pellucida) binding assay, gametes were co-incubated in a TYH droplet covered with mineral oil for 1 h, washed gently in PBS and fixed with 4% paraformaldehyde/PBS. The oocytes were visualized at 200× under a light microscope (Olympus) and the number of sperms was counted at a focus showing the widest diameter of eggs.
In addition, the effect of ACE on sperm-egg binding was examined. That is, Epididymal sperms of both wild-type and knockout mice were treated with either wild-type or peptidase-inactivated (E414D) ACEs or PI-PLC and then incubated with unfertilized eggs from C57BL/6 mice. These treatments had no effects on wild-type sperm-zona binding.

[1] = Peptidase activity of ACE; assay type: biochemical; conditions: relative to wild-type ACE
Method: FIG. 7 is a measurement of peptidase activity (Pase). The E414D is a mutant that Glu414 in the peptidase active site was substituted to Asp. WT, wild-type ACE-T. Procedures were accorded with the description of Kasahara and Ashihara, Clin Chem. 27:1922-1925.
The obtained PCR product encodes a FLAG-tagged version of the soluble testicular isoform. The cDNA for peptidase-inactivated mutant with amino acid Glu414 replaced by Asp was prepared by the site-directed mutagenesis with the mutation promer: 5′-cttggtgatag cgcaccacga tatgggccac atccagtatt tcatgca-3′ (SEQ ID NO: 3). The culture supernatants of COS7 cells transfected with the ACE cDNAs were collected and recombinant ACEs were purified by anti-FLAG M2-agarose affinity column (Sigma). The somatic isoform of ACE (ACE-S) from rabbit lung (Sigma A-6778) was also used according to the manufacturer's protocol. The peptidase activity of the ACE was measured by the reported method (Kawahara and Ashihara, Clin. Chem. 27:1922-1925, 1981). 1.9. FACS Analysis

PLAP = PLAP conversion assay (GPI-anchored protein releasing activity); assay type: biochemical; conditions: immunoblotting of PLAP
Method: This assay uses a nature of nonionic detergent, TritonX-114, which distributes water-soluble molecules and hydrophobia molecules soluble to detergent. By the PLAP conversion assay, GPI-anchored protein releasing activity in a course of purification was monitored. PLAP was prepared by expressing cDNA in COS7 cells, extracted by buffer containing 20 mM Tris, pH 8.0, 150 mM NaCl, 1% TritonX-114, Complete™ protease-inhibitor and the detergent-soluble phase was collected after partitioning at 37° C. PLAP was purified by DEAE-cellulose ionic exchange liquid chromatography (LC) (elution buffer: […] tris pH8.0, 0.1% TritonX-100, 0 mM-500 mM NaCl gradient) and anti-PLAP antibody column (antibody: rabbit anti-PLAP polyclonal antibody, Biomeda; Column: Hitrap NHS-Activated HP, Amercham Bioscience; elution buffer: 100 mM glycine pH2.8). Using detergent-soluble PLAP protein as substrate performed assay. PLAP activity was measured with an alkaline phosphatase detection kit (Nacalai tesque). The conversion reaction was performed in 100 mM Tris, pH 7.5, 5 mM CaCl2, 150 mM NaCl and 0.3 IU/ml of PLAP for 90 min at 37° C. The reaction was stopped by adding TritonX-114 at a final concentration of 2% and 1 mM EDTA, followed by microcentrifugation at 25° C. The water-soluble phase was collected and PLAP activity was measured by the alkaline phosphatase detection kit. […]

CD59 = test: FACS analysis of shedding, CD59 on HeLa cells; assay type: cell-based, human; conditions: filipin pre-treated HeLa cells
E-cadherin = test: FACS analysis of shedding, E-cadherin on F9 cells; assay type: cell-based, mouse
EGFP-GPI [2] = test: FACS analysis of shedding, EGFP-GPI on F9 cells; assay type: cell-based; conditions: without filipin pre-treatment
prion protein = conditions: HEK293 cells, 1.0 U/ml
EGFP-GPI [3] = test: Radiolabeling analysis of released EGFP-GPI from F9 cells; assay type: cell-based; conditions: filipin-pretreated F9 cells
Method: F9 cells expressing EGFP-GPI were metabolically labeled with 0.2 mCi/ml of [^32P]-orthophosphoric acid (Amersham Bioscience) or 0.1 mCi/ml of [^3H]-ethanolamine (Amersham Bioscience) for 16 h. Filipin-pretreated cells were incubated with 0.5 μM of ACE, 1.0 IU/ml of PI-PLC or 10% lysate of mouse submaxillary gland containing mouse glandular kallikrein (mGK; enzyme digesting EGFP at near C-terminus) for 1 h at 37° C. Released EGFP was immunoprecipitated with anti-GFP antibody, subjected to SDS-PAGE and transferred onto nitrocellulose membrane. The quantity of EGFP-GPI protein was evaluated by measuring the density of bands detected on EGFP immunoblotting by using a densitometer (Molecular Device) and radioactivity of the cognate band was determined by a liquid scintillation counter.
Therefore, the F9 cells expressing EGFP-GPI were metabolically labeled with [^32P]-phosphate or [^3H]-ethanolamine, and treated with ACE, PI-PLC or mGK. Then, the released proteins from the cells were applied to EGFP immunoblotting, to measure radioactivity for each band (FIG. 15). Measurements were performed at least four times, and the almost same results were obtained. Although the released EGFP-GPI products with ^32P or ^3H labeling were not detected by mGK treatments, both were detected by ACE treatment or PI-PLC treatment, indicating the presence of a portion of GPI-anchor structure in the ACE-released molecules.

DAF = conditions: erythrocyte having prominent acylation; cited from earlier work

O=P(O)(O)O[C@@H]1[C@@H](O)[C@H](O)[C@@H](O)[C@H](O)[C@@H]1O [inositol monophosphate, reference compound]
inhibition of the PI-PLC effect on egg binding of ACE knockout sperm (sperm-zona binding; 4 mM with PI-PLC): inhibition

B1: ACE (E414D): peptidase-inactivated mutant ACE with amino acid Glu414 replaced by Asp (protein, listed as Mus musculus)
chain: MGQGWATPGLPSFLFLLLCCGHHLLVLSQVATDHVTANQGITNQATTRSQTTTHQATIDQTTQIPNLETDEAKADRFVEEYDRTAQVLLNEYAEANWQYNTNITIEGSKILLEKSTEVSNHTLKYGTRAKTFDVSNFQNSSIKRIIKKLQNLDRAVLPPKELEEYNQILLDMETTYSLSNICYTNGTCMPLEPDLTNMMATSRKYEELLWAWKSWRDKVGRAILPFFPKYVEFSNKIAKLNGYTDAGDSWRSLYESDNLEQDLEKLYQELQPLYLNLHAYVRRSLHRHYGSEYINLDGPIPAHLLGNMWAQTWSNIYDLVAPFPSAPNIDATEAMIKQGWTPRRIFKEADNFFTSLGLLPVPPEFWNKSMLEKPTDGREVVCHPSAWDFYNGKDFRIKQCTSVNMEDLVIAHHDMGHIQYFMQYKDLPVTFREGANPGFHEAIGDIMALSVSTPKHLYSLNLLSTEGSGYEYDINFLMKMALDKIAFIPFSYLIDQWRWRVFDGSITKENYNQEWWSLRLKYQGLCPPVPRSQGDFDPGSKFHVPANVPYVRYFVSFIIQFQFHEALCRAAGHTGPLHKCDIYQSKEAGKLLADAMKLGYSKPWPEAMKLITGQPNMSASAMMNYFKPLTEWLVTENRRHGETLGWPEYNWAPNTARAEGSTAESNRVNFLGLYLEPQQARVGQWVLLFLGVALLVATVGLAHRLYNIRNHHSLRRPHRGPQFGSEVELRHSLAHRLYNIRNHHSLRRPHRGPQFGSEVELRHS
sperm-zona binding of ACE knockout sperm (sperm-zona binding; epididymal sperm of ACE knockout mice, eggs from C57BL/6 mice): vigorously restored
peptidase activity compared with wild-type ACE [1]: less than 1/1000
GPI-anchored protein releasing activity compared with wild-type ACE (PLAP): not changed

B2: ACE: angiotensin-converting enzyme, isoform not named at the place (ACE-S in the FACS tests of b107/b108) (protein, listed as Mus musculus)
chain: MGQGWATPGLPSFLFLLLCCGHHLLVLSQVATDHVTANQGITNQATTRSQTTTHQATIDQTTQIPNLETDEAKADRFVEEYDRTAQVLLNEYAEANWQYNTNITIEGSKILLEKSTEVSNHTLKYGTRAKTFDVSNFQNSSIKRIIKKLQNLDRAVLPPKELEEYNQILLDMETTYSLSNICYTNGTCMPLEPDLTNMMATSRKYEELLWAWKSWRDKVGRAILPFFPKYVEFSNKIAKLNGYTDAGDSWRSLYESDNLEQDLEKLYQELQPLYLNLHAYVRRSLHRHYGSEYINLDGPIPAHLLGNMWAQTWSNIYDLVAPFPSAPNIDATEAMIKQGWTPRRIFKEADNFFTSLGLLPVPPEFWNKSMLEKPTDGREVVCHPSAWDFYNGKDFRIKQCTSVNMEDLVIAHHEMGHIQYFMQYKDLPVTFREGANPGFHEAIGDIMALSVSTPKHLYSLNLLSTEGSGYEYDINFLMKMALDKIAFIPFSYLIDQWRWRVFDGSITKENYNQEWWSLRLKYQGLCPPVPRSQGDFDPGSKFHVPANVPYVRYFVSFIIQFQFHEALCRAAGHTGPLHKCDIYQSKEAGKLLADAMKLGYSKPWPEAMKLITGQPNMSASAMMNYFKPLTEWLVTENRRHGETLGWPEYNWAPNTARAEGSTAESNRVNFLGLYLEPQQARVGQWVLLFLGVALLVATVGLAHRLYNIRNHHSLRRPHRGPQFGSEVELRHSLAHRLYNIRNHHSLRRPHRGPQFGSEVELRHS
dose dependence of CD59 shedding (CD59): dose-dependent
effect on the transmembrane protein E-cadherin (E-cadherin): no effect
effect on EGFP-GPI expression (EGFP-GPI [2]): little effect
shedding of prion protein from cell surface (prion protein): efficiently shed
radioactivity of released products compared with PI-PLC-released molecules, labeled on the ethanolamine (EGFP-GPI [3]; 3H ethanolamine label): a half
radioactivity of released products compared with PI-PLC-released molecules, labeled on the phosphate (EGFP-GPI [3]; 32P phosphate label): about one-third
released EGFP-GPI products with 32P or 3H labeling (EGFP-GPI [3]): detected

B3: GPI-PLD: only mammalian enzyme known so far showing GPI-anchor-cleaving activity (protein, UniProt P80108 24-840, looked up)
Phosphatidylinositol-glycan-sp …: CGLSTHVEIGHRALEFLQLHNGRVNYRELLLEHQDAYQAGIVFPDCFYPSICKGGKFHDVSESTHWTPFLNASVHYIRENYPLPWEKDTEKLVAFLFGITSHMAADVSWHSLGLEQGFLRTMGAIDFHGSYSEAHSAGDFGGDVLSQFEFNFNYLARRWYVPVKDLLGIYEKLYGRKVITENVIVDCSHIQFLEMYGEMLAVSKLYPTYSTKSPFLVEQFQEYFLGGLDDMAFWSTNIYHLTSFMLENGTSDCNLPENPLFIACGGQQNHTQGSKMQKNDFHRNLTTSLTESVDRNINYTERGVFFSVNSWTPDSMSFIYKALERNIRTMFIGGSQLSQKHVSSPLASYFLSFPYARLGWAMTSADLNQDGHGDLVVGAPGYSRPGHIHIGRVYLIYGNDLGLPPVDLDLDKEAHRILEGFQPSGRFGSALAVLDFNVDGVPDLAVGAPSVGSEQLTYKGAVYVYFGSKQGGMSSSPNITISCQDIYCNLGWTLLAADVNGDSEPDLVIGSPFAPGGGKQKGIVAAFYSGPSLSDKEKLNVEAANWTVRGEEDFSWFGYSLHGVTVDNRTLLLVGSPTWKNASRLGHLLHIRDEKKSLGRVYGYFPPNGQSWFTISGDKAMGKLGTSLSSGHVLMNGTLKQVLLVGAPTYDDVSKVAFLTVTLHQGGATRMYALTSDAQPLLLSTFSGDRRFSRFGGVLHLSDLDDDGLDEIIMAAPLRIADVTSGLIGGEDGRVYVYNGKETTLGDMTGKCKSWITPCPEEKAQYVLISPEASSRFGSSLITVRSKAKNQVVIAAGRSSLGARLSGALHVYSLGSD
release of DAF from the intact erythrocyte (DAF): could not release
